The target in this series is T1, DME (MBP-Δ537DME, wild-type glycosylase domain) (UniProt Q8LK56).
T1 sequence: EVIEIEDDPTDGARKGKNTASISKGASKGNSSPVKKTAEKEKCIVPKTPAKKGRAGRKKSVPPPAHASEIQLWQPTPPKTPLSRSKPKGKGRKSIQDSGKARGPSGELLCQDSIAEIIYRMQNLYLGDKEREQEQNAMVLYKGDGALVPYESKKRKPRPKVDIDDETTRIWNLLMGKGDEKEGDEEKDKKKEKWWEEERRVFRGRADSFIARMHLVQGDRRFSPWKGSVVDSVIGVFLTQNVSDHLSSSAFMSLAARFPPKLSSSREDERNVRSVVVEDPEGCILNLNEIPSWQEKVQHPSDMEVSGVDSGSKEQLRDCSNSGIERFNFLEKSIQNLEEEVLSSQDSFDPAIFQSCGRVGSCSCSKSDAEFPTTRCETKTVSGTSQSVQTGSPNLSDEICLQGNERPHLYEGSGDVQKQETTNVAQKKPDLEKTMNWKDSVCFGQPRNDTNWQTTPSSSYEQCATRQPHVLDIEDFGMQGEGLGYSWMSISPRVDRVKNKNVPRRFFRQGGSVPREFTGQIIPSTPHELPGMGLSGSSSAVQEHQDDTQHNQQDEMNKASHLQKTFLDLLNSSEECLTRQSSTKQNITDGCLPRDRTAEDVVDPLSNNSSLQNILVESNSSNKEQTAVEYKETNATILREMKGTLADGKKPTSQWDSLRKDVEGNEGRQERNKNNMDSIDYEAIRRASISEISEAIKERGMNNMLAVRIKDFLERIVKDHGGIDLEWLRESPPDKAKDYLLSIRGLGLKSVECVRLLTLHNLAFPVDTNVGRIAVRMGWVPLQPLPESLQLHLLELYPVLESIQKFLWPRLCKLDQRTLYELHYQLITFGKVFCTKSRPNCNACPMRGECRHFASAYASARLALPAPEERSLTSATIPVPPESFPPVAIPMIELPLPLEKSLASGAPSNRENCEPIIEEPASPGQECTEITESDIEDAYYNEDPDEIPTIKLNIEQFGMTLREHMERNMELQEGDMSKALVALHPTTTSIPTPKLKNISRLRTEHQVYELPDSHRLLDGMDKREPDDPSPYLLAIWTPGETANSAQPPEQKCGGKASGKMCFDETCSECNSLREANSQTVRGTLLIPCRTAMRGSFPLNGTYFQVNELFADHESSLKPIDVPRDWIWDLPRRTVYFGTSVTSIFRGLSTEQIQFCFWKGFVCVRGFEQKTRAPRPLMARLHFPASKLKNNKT
In words: cleavage_in_vitro. The note with it: abasic at top position 18; 5mC at bottom position 19; rate reduced approximately 10-fold.

“CTATACCTCCTCAACTCABAICGGTCACCGTCTCCGGCG / CGCCGGAGACGGTGACNGGAGTTGAGGAGGTATAG [abasic 18 opposite meC (MEA-1.6F18AP / MEA-1.6R17meC)]”: the relative cleavage rate (fold rate vs hemimethylated) was determined as 0.1.
